Test results: patent US9896489B2, “Family of synthetic polynucleotide-binding peptides and uses thereof” (Eastern Virginia Medical School, priority 2012, dated 2018)

What was measured:
H82 cells = H82 cells treated with TZIP peptide as for cell counts
Procedure: Referring to FIG. 7, a subset of H82 cells was treated with the TZIP peptide and the dye trypan blue, which is excluded from live cells. The H82 cells were otherwise treated as previously described and H82 cells used as a control were untreated. The percentages of living cells are represented by solid lines, and the percentages of dead cells are represented by dotted lines.

[1] = tested on: human prostate cancer cell lines; experiment: Growth of prostate cancer cells treated with TZIP peptide; assay type: cell-based
[2] = tested on: normal human epithelial cells; experiment: Growth of normal epithelial cells treated with TZIP peptide; assay type: cell-based
SCLC cells = experiment: Growth of SCLC cell lines treated with TZIP peptide; assay type: cell-based
Procedure: (§1) The peptide was tested against SCLC cells in culture. The cell lines included H82, H146, and controls. The H82 cell line has amplified c-MYC genes and H146 has increased levels of expression of c-MYC. The controls were normal epithelial cells and HeLa cells (a cervical cancer cell line with no known changes in c-MYC).

U-87 MG cells = assay type: cell-based
HeLa cells = experiment: HeLa cell growth, hemocytometer cell counts; assay type: cell-based; conditions: treated as described for H82 cells
Procedure: This was expected based on the lack of changes in c-MYC in HeLa cell lines. HeLa cells were grown in suspension and either treated or untreated with the TZIP peptide as described above for the H82 cells. Points were taken at different times post treatment, and cells were counted using a hemocytometer. […] This difference was expected, as HeLa cells differ from SCLC cells in many aspects of tumor suppressor gene products and presence of oncogenes.

KG-1C cells = assay type: cell-based
[3] = tested on: Tat transactivation of the HIV-1 LTR; experiment: Tat transactivation of HIV-1 LTR-luciferase in U-87 MG cells; assay type: cell-based; conditions: peptide added exogenously to the medium; clade B LTR and Tat
Procedure: The TZIP peptide's effect on Tat's ability to transactivate the HIV-1 LTR was tested. In this experiment, U-87 MG cells were transfected with the clade B HIV-1 LTR coupled to luciferase. They were also transfected to express Tat, clade B. In the absence of Tat transfection there is no luciferase activity. […] The results in FIG. 9B document inhibition of the HIV-1 LTR at low concentrations of peptide, levels which would be acceptable in humans.

[4] = tested on: FXS ssDNA (G-rich trinucleotide DNA repeats at FMR1); experiment: Electrophoretic mobility shift assay with FXS ssDNA; assay type: binding
Description: A GE Microspin GST purification module was used to purify GST-tagged Purα and Purβ from bacterial lysate. Polyacrylamide gel electrophoresis with SDS-Page gels and molecular markers were used to verify that GST, Purα, and Purβ were expressed and purified. Expressed proteins were detected using antibodies against Purα and Purβ, including monoclonal mouse anti-Pur antibody developed in Johnson laboratory (clone 10B12) and polyclonal antibody against Purβ (Abcam). Polyacrylamide gel electrophoresis with TBE buffer was used for gel-mobility shift assay. Infrared-labeled oligonucleotides representing G-rich trinucleotide DNA repeats at FMR1 in patients with Fragile X Syndrome (FXS) were custom ordered and are referred to herein as FXS ssDNA. Infrared-labeled oligonucleotide substrates in agarose and polyacrylamide gels were detected through the use of the Odyssey (LICOR) instrumentation and software. […] When Purα and Purβ are combined (FIG. 17), by increasing the amount of Purβ, the DNA is shifted more to the top of the gel. Therefore, there is more binding of the proteins to the DNA. […] In FIG. 19, TZIP enhances the mobility shift of ssDNA FXS in the presence of Purα.

[5] = tested on: ALS ssDNA (GGGGCC hexanucleotide repeat expanded at C9ORF72); experiment: Electrophoretic mobility shift assay with ALS ssDNA; assay type: binding
Procedure: Infrared oligonucleotides representing a GGGGCC hexanucleotide repeat expanded at C9ORF72 in ALS patients were custom ordered and are referred to as ALS ssDNA. 4% polyacrylamide gel electrophoresis was performed using IR-labeled oligonucleotides and imaged using the Li-Cor Odyssey IR imaging instrumentation and software.
Electrophoretic Mobility Shift Assay-Various combinations of Purα, Purβ, TZIP, and IR-labeled oligonucleotides were prepared in the 5× Johnson binding buffer (Bergemann, Andrew D and Johnson, Edward M (1992), The HeLa Pur Factor Binds Single-Stranded DNA at a Specific Element Conserved in Gene Flanking Regions and Origins of DNA Replication. Molecular and Cellular Biology, vol 12:3 (1257-1265), incorporated by reference herein in its entirety), adjusted to 5 mM DTT, 5 mM EDTA, and 0.5% Tween 20. 4% polyacrylamide gel electrophoresis was performed on samples and imaged with the Li-Cor Odyssey instrumentation and software. Densitometry was performed on the DNA concentration course experiments using the Li-Cor Odyssey software.
A Kd value obtained for Purβ was complex and not readily interpretable.

H82 SCLC cells = experiment: H82 SCLC cell growth, hemocytometer cell counts; assay type: cell-based; conditions: 10^−12 M peptide
Procedure: as §1
H82 SCLC cells were grown in suspension in small cell culture wells in RPMI medium with 10% fetal bovine serum. At time 0, the TZIP peptide was added to the medium at a final concentration of 10^−12 M. Control cells received no peptide. The TZIP peptide was added as a stock solution of 200 μg in 200 μL of deionized water.

B1: novel synthetic Purα agonist peptide, 89 aa, SEQ ID NO: 1, with cell transport sequence YARAKRRQARRQIR (peptide)
chain: LASTFVTRDNKRYFMDLKENQRGRFMRVSQVGTRGYRNSLTVSYSVAWLEFRTHLCKLIDEYAKLQYARAKRRQARRQIRQQQQQQQEE
- cell killing (living/dead cells, trypan blue) (H82 cells): killed TZIP-treated H82 cells
- growth inhibition [1]: effective at inhibiting growth of prostate cancer cells
- effect of treatment on normal cells [2]: did not show any significant effects
- inhibitory effect on growth, compared with other cell types (SCLC cells): consistently showed the greatest inhibitory effects
- effects on growth kinetics or morphology (U-87 MG cells): did not display any effects on growth kinetics or morphology
- effect on cell growth (HeLa cells): little effect on the growth of HeLa cells
- effects on growth kinetics or morphology (KG-1C cells): did not display any effects on growth kinetics or morphology
- inhibition of Tat transactivation (luciferase) [3]: transactivation is inhibited over a broad range of low concentrations
- binding / mobility shift of ssDNA FXS (qualitative) [4]: tightly binds the FXS trinucleotide expanded repeat
- order of binding ssDNA FXS [4]: TZIP>Purα>Purβ
- effect of TZIP on Purα binding to ssDNA FXS ([4]; in the presence of Purα): greatly stimulates Purα binding
- binding of ALS repeat (qualitative) ([5]; DNA concentration courses): strongly bind the ALS repeat in low concentrations
- effect of TZIP on Purα binding to ALS ssDNA ([5]; Purα and TZIP mixed): alter the binding activity of Purα
- effect of TZIP on Purβ binding to ALS hexanucleotide repeat ([5]; Purβ and TZIP mixed): greatly stimulates binding of Purβ
- Kd ([5]; densitometry of DNA concentration course): 0.55 nM
- concentration at which TZIP functions cooperatively with Purα to enhance binding to the GGGGCC repeat ([5]; with Purα): less than 1 μM
- growth of treated cells (cell counts) (H82 SCLC cells; after three days): no further growth of the treated cancer cells was evident
- growth inhibition (cell counts) (H82 SCLC cells; one day post treatment): inhibitory effects of the peptide were evident
